Measurements published in US20250171562A1.

biological target: mixture of three Der p 2 specific recombinant human IgE clones H10, H12, P4E (human) (UniProt P01854); assay: RBL-SX38 IgE displacement, FACS
Sequence (P01854 other isoform, or with tags, fused parts or gaps): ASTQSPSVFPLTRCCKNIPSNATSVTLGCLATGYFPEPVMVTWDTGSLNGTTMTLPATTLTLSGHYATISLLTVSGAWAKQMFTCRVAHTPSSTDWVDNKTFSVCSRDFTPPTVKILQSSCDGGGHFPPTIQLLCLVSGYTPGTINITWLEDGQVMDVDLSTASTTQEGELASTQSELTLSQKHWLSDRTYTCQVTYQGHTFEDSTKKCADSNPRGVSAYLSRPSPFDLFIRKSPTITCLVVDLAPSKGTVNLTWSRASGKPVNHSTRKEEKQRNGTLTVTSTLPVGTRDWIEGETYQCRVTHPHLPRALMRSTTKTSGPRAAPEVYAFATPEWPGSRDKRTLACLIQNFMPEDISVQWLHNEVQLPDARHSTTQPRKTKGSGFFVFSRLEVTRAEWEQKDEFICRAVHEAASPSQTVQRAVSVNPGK

Max effect/effect 1 µM	Binder
35%	CIgG4F3A1(G4S)1 (Fc fusion) chain 1: GPPCPPCPAPEFLGGPSVFLFPPKPKDTLMISRTPEVTCVVVDVSQEDPEVQFNWYVDGVEVHNAKTKPREEQFNSTYRVVSVLTVLHQDWLNGKEYKCKVSNKGLPSSIEKTISKAKGQPREPQVYTLPPCQEEMTKNQVSLWCLVKGFYPSDIAVEWESNGQPENNYKTTPPVLDSDGSFFLYSRLTVDKSRWQEGNVFSCSVMHEALHNHYTQKSLSLSLGKGGGGSDVQLQESGGGLVQAGGSLKLSCAASRGSLSRWDVAWFRQAPGKERSFVTRISWSGTTSYYADAVKGRFAISRDNAKNTVYLQMNSLKPEDTAVYYCAVALYGNRGYYDVNAHSYWGQGTQVTVS chain 2: GPPCPPCPAPEFLGGPSVFLFPPKPKDTLMISRTPEVTCVVVDVSQEDPEVQFNWYVDGVEVHNAKTKPREEQFNSTYRVVSVLTVLHQDWLNGKEYKCKVSNKGLPSSIEKTISKAKGQPREPQVCTLPPSQEEMTKNQVSLSCAVKGFYPSDIAVEWESNGQPENNYKTTPPVLDSDGSFFLVSRLTVDKSRWQEGNVFSCSVMHEALHNHYTQKSLSLSLGKGGGGSEVQLLESGGGLVQPGGSLRLSCAASGFTFGNYDMAWVRQAPGKRPEWVSSIDTGGDITHYADSVKGRFTISRDNAKNTLYLQMNSLRPEDTAVYWCATDEEYALGPNEFDYYGQGTLVTVSS
2%	CIgG4F3A1(G4S)3 (Fc fusion) chain 1: GPPCPPCPAPEFLGGPSVFLFPPKPKDTLMISRTPEVTCVVVDVSQEDPEVQFNWYVDGVEVHNAKTKPREEQFNSTYRVVSVLTVLHQDWLNGKEYKCKVSNKGLPSSIEKTISKAKGQPREPQVYTLPPCQEEMTKNQVSLWCLVKGFYPSDIAVEWESNGQPENNYKTTPPVLDSDGSFFLYSRLTVDKSRWQEGNVFSCSVMHEALHNHYTQKSLSLSLGKGGGGSGGGGSGGGGSDVQLQESGGGLVQAGGSLKLSCAASRGSLSRWDVAWFRQAPGKERSFVTRISWSGTTSYYADAVKGRFAISRDNAKNTVYLQMNSLKPEDTAVYYCAVALYGNRGYYDVNAHSYWGQGTQVTVS chain 2: GPPCPPCPAPEFLGGPSVFLFPPKPKDTLMISRTPEVTCVVVDVSQEDPEVQFNWYVDGVEVHNAKTKPREEQFNSTYRVVSVLTVLHQDWLNGKEYKCKVSNKGLPSSIEKTISKAKGQPREPQVCTLPPSQEEMTKNQVSLSCAVKGFYPSDIAVEWESNGQPENNYKTTPPVLDSDGSFFLVSRLTVDKSRWQEGNVFSCSVMHEALHNHYTQKSLSLSLGKGGGGSGGGGSGGGGSEVQLLESGGGLVQPGGSLRLSCAASGFTFGNYDMAWVRQAPGKRPEWVSSIDTGGDITHYADSVKGRFTISRDNAKNTLYLQMNSLRPEDTAVYWCATDEEYALGPNEFDYYGQGTLVTVSS
0%	CIgG4F3A1(G4S)2 (Fc fusion) chain 1: GPPCPPCPAPEFLGGPSVFLFPPKPKDTLMISRTPEVTCVVVDVSQEDPEVQFNWYVDGVEVHNAKTKPREEQFNSTYRVVSVLTVLHQDWLNGKEYKCKVSNKGLPSSIEKTISKAKGQPREPQVYTLPPCQEEMTKNQVSLWCLVKGFYPSDIAVEWESNGQPENNYKTTPPVLDSDGSFFLYSRLTVDKSRWQEGNVFSCSVMHEALHNHYTQKSLSLSLGKGGGGSGGGGSDVQLQESGGGLVQAGGSLKLSCAASRGSLSRWDVAWFRQAPGKERSFVTRISWSGTTSYYADAVKGRFAISRDNAKNTVYLQMNSLKPEDTAVYYCAVALYGNRGYYDVNAHSYWGQGTQVTVS chain 2: GPPCPPCPAPEFLGGPSVFLFPPKPKDTLMISRTPEVTCVVVDVSQEDPEVQFNWYVDGVEVHNAKTKPREEQFNSTYRVVSVLTVLHQDWLNGKEYKCKVSNKGLPSSIEKTISKAKGQPREPQVCTLPPSQEEMTKNQVSLSCAVKGFYPSDIAVEWESNGQPENNYKTTPPVLDSDGSFFLVSRLTVDKSRWQEGNVFSCSVMHEALHNHYTQKSLSLSLGKGGGGSGGGGSEVQLLESGGGLVQPGGSLRLSCAASGFTFGNYDMAWVRQAPGKRPEWVSSIDTGGDITHYADSVKGRFTISRDNAKNTLYLQMNSLRPEDTAVYWCATDEEYALGPNEFDYYGQGTLVTVSS
